This is an account of results in patent publication US20090022714A1 (published 2009).

Where a chain is given by its changes, count along the chain named.

In test [1] the target is T1, soluble fusion protein KDR (VEGFR-2)-AP (human, UniProt P35968 20-764).
T1 construct: extracellular domain; expressed in NIH 3T3 cells; also called KDR-AP; KDR (VEGFR-2)-alkaline phosphatase fusion protein; not shown: human placental alkaline phosphatase (AP), vector AP-Tag
Put plainly: BIAcore, KDR-AP immobilized. Here is the method:
The binding kinetics of soluble Fab proteins to KDR (VEGFR-2) were measured by surface plasmon resonance using a BIAcore biosensor (Pharmacia Biosensor). […] Sensorgrams were obtained at each concentration and were evaluated using a program, BIA Evaluation 2.0, to determine the rate constants kon and koff Kd was calculated from the ratio of rate constants koff/kon.
A general note: In SPR one partner is held on a chip, and binding of the other changes the refractive index at the surface.

The target of test [2] is T1, soluble fusion protein KDR (VEGFR-2)-AP. Put plainly: competitive ELISA: KDR-AP binding to immobilized VEGF165. Here is the method: In a direct binding assay, various amounts of soluble Fab proteins were added to KDR (VEGFR-2)-coated 96-well Maxi-sorp microtiter plates and incubated at RT for 1 h, after which the plates were washed 3 times with PBST. The plates were then incubated at RT for 1 h with 100 Φl of a rabbit anti-human Fab antibody-HRP conjugate (Jackson ImmunoResearch Laboratory Inc., West Grove, Pa.). The plates were washed and developed following the procedure described above for the phage ELISA. […] The mixtures were then transferred to 96-well microtiter plates precoated with VEGF₁₆₅ (200 ng/well) and incubated at RT for an additional 2 h, after which the plates were washed 5 times and the substrate for AP (p-nitrophenyl phosphate, Sigma) was added. Absorbance at 405 nm was measured to quantify the bound KDR (VEGFR-2)-AP molecules (8).
(ELISA stands for enzyme-linked immunosorbent assay.)

The target in test [3] is T2, soluble fusion protein Flk-1-AP (murine, UniProt P35918 20-762).
T2 construct: expressed in NIH 3T3; not shown: alkaline phosphatase (AP)
Put plainly: ELISA on captured Flk-1-AP.

The target of test [4] is human KDR (VEGFR-2), cell surface-expressed (HUVEC) (human, UniProt P35968 20-1356). Put plainly: cell-based or functional assay.
Test [5] deals with human KDR (VEGFR-2), construct not stated (human, UniProt P35968 20-764, limits assumed). In words: selection from second Fab phage library.
Test [6] deals with T2, soluble fusion protein Flk-1-AP. Put plainly: blocking of VEGF binding to Flk-1.

For orientation: Kd means the constant that tells how readily two partners part at equilibrium. What is called koff is the rate constant with which the complex falls apart. A low value points to a long-lived complex. As a reminder, the kon is the rate constant with which the complex forms. Low values mean slower complex formation, high ones faster complex formation. For orientation: IC50 means the concentration that gives 50% inhibition. Higher therefore signals a need for much substance.

Chain of human KDR (VEGFR-2), cell surface-expressed (HUVEC) (P35968 20-1356): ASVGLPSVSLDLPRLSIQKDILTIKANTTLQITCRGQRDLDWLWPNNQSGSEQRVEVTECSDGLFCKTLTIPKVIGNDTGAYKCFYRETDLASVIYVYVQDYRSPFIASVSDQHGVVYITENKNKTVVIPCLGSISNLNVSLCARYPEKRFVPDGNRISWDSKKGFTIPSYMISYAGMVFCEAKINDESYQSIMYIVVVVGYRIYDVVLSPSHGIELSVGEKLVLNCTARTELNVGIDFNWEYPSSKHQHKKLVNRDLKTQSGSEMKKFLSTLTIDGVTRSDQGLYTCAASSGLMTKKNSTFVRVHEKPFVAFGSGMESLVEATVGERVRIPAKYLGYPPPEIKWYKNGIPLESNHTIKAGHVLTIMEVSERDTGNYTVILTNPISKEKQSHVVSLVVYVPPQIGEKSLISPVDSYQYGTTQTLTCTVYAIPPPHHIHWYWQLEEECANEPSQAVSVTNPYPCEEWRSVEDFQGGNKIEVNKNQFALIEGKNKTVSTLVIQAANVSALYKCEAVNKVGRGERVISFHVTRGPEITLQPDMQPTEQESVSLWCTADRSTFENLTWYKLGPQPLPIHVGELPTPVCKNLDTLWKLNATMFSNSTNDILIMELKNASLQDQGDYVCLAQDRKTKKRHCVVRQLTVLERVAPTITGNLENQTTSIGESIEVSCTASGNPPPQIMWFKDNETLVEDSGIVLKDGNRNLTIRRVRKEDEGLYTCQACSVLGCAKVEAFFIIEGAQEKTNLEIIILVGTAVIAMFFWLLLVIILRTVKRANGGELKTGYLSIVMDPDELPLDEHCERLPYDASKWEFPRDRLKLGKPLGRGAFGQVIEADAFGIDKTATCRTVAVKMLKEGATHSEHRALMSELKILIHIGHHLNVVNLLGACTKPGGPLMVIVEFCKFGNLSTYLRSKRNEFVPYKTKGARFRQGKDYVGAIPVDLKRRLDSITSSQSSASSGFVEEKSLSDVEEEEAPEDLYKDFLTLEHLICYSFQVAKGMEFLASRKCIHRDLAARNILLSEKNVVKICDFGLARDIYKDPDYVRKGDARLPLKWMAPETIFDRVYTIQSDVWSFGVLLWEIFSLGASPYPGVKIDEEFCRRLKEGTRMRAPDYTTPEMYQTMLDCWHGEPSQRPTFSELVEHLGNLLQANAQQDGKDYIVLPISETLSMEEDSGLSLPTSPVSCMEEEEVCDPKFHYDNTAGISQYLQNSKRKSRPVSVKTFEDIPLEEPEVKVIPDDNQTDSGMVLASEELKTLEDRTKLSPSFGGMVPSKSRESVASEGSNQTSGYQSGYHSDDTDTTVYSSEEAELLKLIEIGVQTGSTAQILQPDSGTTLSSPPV
T2 sequence (P35918 20-762): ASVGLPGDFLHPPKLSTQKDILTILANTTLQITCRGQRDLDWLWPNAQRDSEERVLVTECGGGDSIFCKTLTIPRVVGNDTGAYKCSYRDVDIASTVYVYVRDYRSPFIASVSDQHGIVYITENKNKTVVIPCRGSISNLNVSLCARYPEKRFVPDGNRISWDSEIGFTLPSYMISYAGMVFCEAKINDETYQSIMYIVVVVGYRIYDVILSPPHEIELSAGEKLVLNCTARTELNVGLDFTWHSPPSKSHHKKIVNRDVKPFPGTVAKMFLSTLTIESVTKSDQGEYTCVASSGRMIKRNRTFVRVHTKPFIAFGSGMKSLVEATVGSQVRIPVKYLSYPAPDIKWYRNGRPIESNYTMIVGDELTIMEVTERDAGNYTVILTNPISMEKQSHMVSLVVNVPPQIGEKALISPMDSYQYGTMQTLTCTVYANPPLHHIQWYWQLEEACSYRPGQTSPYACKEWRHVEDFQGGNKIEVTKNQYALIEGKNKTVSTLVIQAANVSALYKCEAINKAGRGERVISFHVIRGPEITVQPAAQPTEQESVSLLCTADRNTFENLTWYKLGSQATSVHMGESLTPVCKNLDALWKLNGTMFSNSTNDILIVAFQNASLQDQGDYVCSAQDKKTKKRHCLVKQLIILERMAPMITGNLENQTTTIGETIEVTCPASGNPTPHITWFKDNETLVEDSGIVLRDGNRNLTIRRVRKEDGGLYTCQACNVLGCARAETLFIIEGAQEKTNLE
T1 sequence (P35968 20-764): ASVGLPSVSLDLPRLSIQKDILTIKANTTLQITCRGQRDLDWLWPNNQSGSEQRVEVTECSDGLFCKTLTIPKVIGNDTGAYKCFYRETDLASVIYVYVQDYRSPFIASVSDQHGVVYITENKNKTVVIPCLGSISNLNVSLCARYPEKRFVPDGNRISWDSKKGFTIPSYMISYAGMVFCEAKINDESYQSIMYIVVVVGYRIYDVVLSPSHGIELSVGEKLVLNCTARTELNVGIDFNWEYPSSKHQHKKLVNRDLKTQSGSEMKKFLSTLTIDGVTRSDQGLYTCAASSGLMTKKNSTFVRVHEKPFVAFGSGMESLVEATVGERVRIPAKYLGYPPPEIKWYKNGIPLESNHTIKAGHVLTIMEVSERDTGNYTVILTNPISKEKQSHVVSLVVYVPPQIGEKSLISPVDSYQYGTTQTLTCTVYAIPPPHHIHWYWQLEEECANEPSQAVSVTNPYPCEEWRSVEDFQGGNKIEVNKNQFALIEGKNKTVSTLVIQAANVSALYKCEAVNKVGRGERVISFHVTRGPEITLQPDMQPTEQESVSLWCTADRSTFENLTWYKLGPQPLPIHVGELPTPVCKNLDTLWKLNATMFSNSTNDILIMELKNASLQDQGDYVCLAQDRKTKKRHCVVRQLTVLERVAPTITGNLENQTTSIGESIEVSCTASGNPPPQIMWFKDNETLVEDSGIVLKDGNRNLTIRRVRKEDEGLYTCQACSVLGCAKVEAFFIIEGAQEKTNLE
Chain of human KDR (VEGFR-2), construct not stated (P35968 20-764 limits assumed): as the sequence (P35968 20-764) above

B1: human anti-KDR (VEGFR-2) Fab D2C6 (Fab, V domains shown)
VH: EVQLVQSGGGLVKPGGSLRLSCAASGFTFSSYSMNWVRQAPGKGLEWVSSISSSSSYIYYADSVKGRFTISRDNAKNSLYLQMNSLRAEDTAVYYCARVTDAFDIWGQGTMVTVSS
VL: EIVMTQSPATLSLSPGERATLSCRASQSVSSYLAWYQQKPGQAPRLLIYDSSNRATGIPARFSGSGSGTDFTLTISSLEPEDFATYYCLQHNTFPPTFGQGTKVEIK
notes: soluble Fab from E. coli HB2151; also called Hu-2C6 Fab
In test [1], B1 registered a Kd of 1.97 nM, an off-rate constant (koff) of 0.000538 s⁻¹ and an on-rate constant (kon) of 273000 M⁻¹ s⁻¹. For the same molecule, the half-inhibitory concentration (IC50) in test [2] was around 2 nM. In addition, the binding result in test [3] is listed as “no binding”. Moreover, the “EC50, inhibition of VEGF-stimulated [3H]-TdR incorporation in HUVEC” value (shortened to “EC50, inhibition of VEGF-stimulated”) in test [4] was around 0.5 nM.

B2: human Fab SF2 (Fab, V domains shown)
VH: B1 VH
VL: QSVVTQPPSVSGAPGQRVTISCTGSSSNIGTGYDVHWYQQVPGSAPKLLIYAYTNRPSGVPDRFSGSKSGMSASLVIGGLQAEDEADYYCQSFDDSLNGLVFGPGTSVTVL
notes: from the second library
On to B2, for which the binding result in test [5] is “binds”.

B3: human Fab 1121 (Fab, V domains shown)
VH: B1 VH
VL: DIQMTQSPSSVSASIGDRVTITCRASQGIDNWLGWYQQKPGKAPKLLIYDASNLDTGVPSRFSGSGSGTYFTLTISSLQAEDFAVYFCQQAKAFPPTFGGGTKVDIK
notes: from the second library
Consider B3, for which the binding result in test [5] was “binds”.

B4: human anti-KDR (VEGFR-2) Fab D2H2 (Fab, V domains shown)
VH: B1 VH with N77D
VL: DIQLTQSPSSVSASVGDRVTITCRASQGISSRLAWYQQKPGKAPKLLIYAASSLQTGVPSRFSGSGSGTDFTLTISSLQPEDFATYYCQQANRFPPTFGPGTKVDIK
notes: soluble Fab from E. coli HB2151; also called Hu-2H2 Fab
In test [1], B4 had an equilibrium dissociation constant (Kd) of 3.93 nM, a koff of 0.000487 s⁻¹ and a kon of 124000 M⁻¹ s⁻¹. Besides, the IC50 in test [2] is around 2 nM. Besides, the binding result in test [3] is listed as “no binding”. Further, the “EC50, inhibition of VEGF-stimulated” value in test [4] was around 0.8 nM.

B5: human Fab SA3 (Fab, V domains shown)
VH: B1 VH
VL: DVVMTQSPSSLSASVGDRVTITCRASQNINNYLNWYQQKPGKAPKLLIYAASTLQSGVPSRFSGSGSGTDFTLTITSLQPEDSATYYCQQYSRYPPTFGGGTKVEIT
notes: from the second library
In the case of B5, in test [5], the binding result was “binds”.

B6: human Fab SA1 (Fab, V domains shown)
VH: B1 VH
VL: QSVVTQPPSVSGAPGQRVTISCTGSHSNFGAGTDVHWYQHLPGTAPRLLIHGDSNRPSGVPDRFSGSRSGTSASLAITGLRVEDEADYYCQSYDYGLRGWVFGGGTKLTVL
notes: from the second library (D2C6 heavy chain with shuffled light chains)
On to B6, for which the binding result in test [5] was “binds”.

B7: human anti-KDR (VEGFR-2) Fab D1H4 (Fab, V domains shown)
VH: B1 VH
VL: QSALTQPASLSGSPGQSITISCAGTTTDLTYYDLVSWYQQHPGQAPKLVIYDGNKRPSGVSNRFSGSKSGNTASLTISGLQAEDEADYYCNSYVSSRFYVFGTGTKVTVL
notes: soluble Fab from E. coli HB2151; also called Hu-1H4 Fab
Turning to B7, in test [1], the affinity, expressed as Kd, was 2.76 nM; the dissociation rate constant (koff) turned out to be 0.000153 s⁻¹; the kon stood at 55500 M⁻¹ s⁻¹. This molecule also registered an IC50 in test [2] of around 2 nM. The binding result in test [3] was “no binding”. In test [4], the “EC50, inhibition of VEGF-stimulated” value was around 0.5 nM.

B8: human Fab SB10 (Fab, V domains shown)
VH: B1 VH
VL: QSALTQPASVSGSRGQSITLSCTGSSTDVGNYNYISWYQQHPGQAPKLLIYDVTSRPSGVSDRFSGSKSGLTASLTISGLQPEDEADYYCNSYSATDTLVFGGGTKLTVL
notes: from the second library
Take B8: in test [5], the binding result is “binds”.

B9: human Fab SB5 (Fab, V domains shown)
VH: B1 VH
VL: QAVLTQPSSVSGAPGQRVTISCTGQSSNIGADYDVHWYQQFPGTAPKLLIYGHNNRPSGVPDRFSGSKSGTSVSLVISGLQAEDEADYYCQSYDSSLSGLVFGGGTKVTVL
notes: from the second library
As for B9, in test [5], the binding result is “binds”.

B10: human Fab SC7 (Fab, V domains shown)
VH: B1 VH
VL: DIQLTQSPSSVSASVGDSVTITCRASQDISSWLAWYQQKPGEAPKLLIYAASLLQSGVPSRFSGSGSGTDFALTINSLQPEDFATYFCQQADSFPPTFGQGTRLEIK
notes: from the second library
As for B10, the binding result in test [5] was “binds”.

B11: human Fab SD5 (Fab, V domains shown)
VH: B1 VH
VL: QSVVTQPPSVSGAPGQRVTISCSGSRSNIGAHYEVQWYQQFPGAAPKLLIYGDTNRPSGVPDRFSASHSGTSASLAITGLQAEDEADYYCQSYDTSLRGPVFGGGTKLTVL
notes: from the second library
On to B11, for which the binding result in test [5] was “binds”.

B12: human Fab SD2 (Fab, V domains shown)
VH: B1 VH
VL: DIELTQSPSSVSASVGDRVTLTCRASQSIKRWLAWYQQKPGKAPRLLIYAASTLQSGVPSRFSGGGSGTDFTLTINSLQPEDFAIYYCQQANSFPPTFGPGTKVDIK
notes: from the second library
Regarding B12, the binding result in test [5] is “binds”.

B13: human Fab SF7 (Fab, V domains shown)
VH: B1 VH
VL: B6 VL with V4L, S54T, N55H, P61A, T71A
notes: from the second library
With B13, the binding result in test [5] is given as “binds”.

B14: human anti-KDR (VEGFR-2) Fab D1F7 (Fab, V domains shown)
VH: EVQLVQSGAEVKKPGASVKVSCKASGGTFSSYAISWVRQAPGQGLEWMGGIIPIFGTANYAQKFQGRVTFTADKSTSTAYMELRSLRSDDTAVYYCARGYDYYDSSGVASPFDYWGQGTLVTVSS
VL: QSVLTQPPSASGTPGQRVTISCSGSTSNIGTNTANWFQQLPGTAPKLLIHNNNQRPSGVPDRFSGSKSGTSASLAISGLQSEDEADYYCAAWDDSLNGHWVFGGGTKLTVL
notes: soluble Fab from E. coli HB2151; also called DIF7; Hu-1F7 Fab
B14: in test [1], the dissociation constant Kd turned out to be 45.2 nM, the off-rate constant (koff) turned out to be 0.00187 s⁻¹ and the kon amounted to 41400 M⁻¹ s⁻¹. Moreover, the concentration for half-maximal inhibition (IC50) in test [2] was around 20 nM. In addition, the concentration for half-maximal inhibition (IC50) in test [6] is around 15 nM. The “EC50, inhibition of VEGF-stimulated” value in test [4] is around 15 nM.
